These results are taken from US20260167721A1 (ABLEXIS, published 2026).

In assay [1] the target is T1, human CD3 (TCR/CD3 complex on the cell surface) (human, UniProt P07766 23-207; P04234 22-171; P09693 23-182).
T1 construct: whole, on cells; Native CD3 on human Pan-T cells or Jurkat wild-type cells; also called CD3 on Pan-T cells; CD3 on Jurkat WT cells
Put plainly: flow cytometry, Pan-T cells, 10 ug/mL. A general note: A flow cytometer gives signals particle by particle.

Assay [2] deals with T1, human CD3 (TCR/CD3 complex on the cell …). Description: flow cytometry, Jurkat WT gMFI over Jurkat KO gMFI, 10 ug/mL.
The target is the same in assay [3]. Description: flow cytometry, Jurkat WT cells, 10 ug/mL.
For assay [4] the target is unchanged. Description: flow cytometry, Jurkat WT gMFI over Jurkat KO gMFI, 1 ug/mL.
Assay [5] has the same target. Put plainly: flow cytometry, Jurkat WT cells, 1 ug/mL.
The target is the same in assay [6]. Description: flow cytometry, Pan-T cells, 1 ug/mL.

T1 sequence (P07766 23-207, chain 1 of 3): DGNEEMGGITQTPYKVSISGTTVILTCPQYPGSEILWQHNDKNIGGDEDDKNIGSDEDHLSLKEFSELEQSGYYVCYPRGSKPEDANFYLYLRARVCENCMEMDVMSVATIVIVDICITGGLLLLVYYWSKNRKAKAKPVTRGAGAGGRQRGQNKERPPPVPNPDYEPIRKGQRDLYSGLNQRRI
T1 sequence (P04234 22-171, chain 2 of 3): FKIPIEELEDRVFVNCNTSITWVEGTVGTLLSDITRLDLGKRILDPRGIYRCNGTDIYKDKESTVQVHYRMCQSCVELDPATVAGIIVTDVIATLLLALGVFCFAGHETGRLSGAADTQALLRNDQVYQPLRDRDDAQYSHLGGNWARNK
T1 sequence (P09693 23-182, chain 3 of 3): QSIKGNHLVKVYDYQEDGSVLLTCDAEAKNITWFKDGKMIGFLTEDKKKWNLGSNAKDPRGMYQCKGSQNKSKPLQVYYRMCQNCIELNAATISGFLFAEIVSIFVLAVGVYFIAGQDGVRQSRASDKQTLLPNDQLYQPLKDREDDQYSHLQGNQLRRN

B1: CD3 × CD33-BspAb86 (bispecific antibody)
scFv-Fc: EVQLVESGGGLVKPGGSLRLSCAASGFTFSSYSMNWVRQAPGKCLEWVSSISRSGTYIYYADSVKGRFTISRDNAKNSLYLQMNSLRAEDTAVYYCARERWELLYFDYWGQGTLVTVSSGGGGSGGGGSGGGGSGGGGSQTVVTQEPSLTVSPGGTVTLTCASSTGAVTSGYYPNWFQQKPGQAPRALIYSTSNKHSWTPARFSGSLLGGKAALTLSGVQPEDEAEYYCLLYYGGAYVFGCGTKVTVLGGGGSDKTHTCPPCPAPEFEGGPSVFLFPPKPKDTLMISRTPEVTCVVVDVSHEDPEVKFNWYVDGVEVHNAKTKPREEQYNSTYRVVSVLTVLHQDWLNGKEYKCKVSNKALPASIEKTISKAKGQPREPQVYTLPPCREEMTKNQVSLWCLVKGFYPSDIAVEWESNGQPENNYKTTPPVLDSDGSFFLYSKLTVDKSRWQQGNVFSCSVMHEALHNHYTQKSLSLSPGK
heavy: EVQLVQSGAEVKKPGSSVKVSCKASGYTITDSNIHWVRQAPGQSLEWIGYIYPYNGGTDYNQKFKNRATLTVDNPTNTAYMELSSLRSEDTAFYYCVNGNPWLAYWGQGTLVTVSSASTKGPSVFPLAPSSKSTSGGTAALGCLVKDYFPEPVTVSWNSGALTSGVHTFPAVLQSSGLYSLSSVVTVPSSSLGTQTYICNVNHKPSNTKVDKRVEPKSCDKTHTCPPCPAPEFEGGPSVFLFPPKPKDTLMISRTPEVTCVVVDVSHEDPEVKFNWYVDGVEVHNAKTKPREEQYNSTYRVVSVLTVLHQDWLNGKEYKCKVSNKALPASIEKTISKAKGQPREPQVCTLPPSREEMTKNQVSLSCAVKGFYPSDIAVEWESNGQPENNYKTTPPVLDSDGSFFLVSKLTVDKSRWQQGNVFSCSVMHEALHNRFTQKSLSLSPGK
light: DIQLTQSPSTLSASVGDRVTITCRASESLDNYGIRFLTWFQQKPGKAPKLLMYAASNQGSGVPSRFSGSGSGTEFTLTISSLQPDDFATYYCQQTKEVPWSFGQGTKVEVKRTVAAPSVFIFPPSDEQLKSGTASVVCLLNNFYPREAKVQWKVDNALQSGNSQESVTEQDSKDSTYSLSSTLTLSKADYEKHKVYACEVTHQGLSSPVTKSFNRGEC
notes: KiH heterodimer
For B1, the “% Positive” value amounted to 92.4% in assay [1] and 35.2% in assay [6]. Besides, the gMFI in assay [1] is 25400 gMFI; in assay [3], 9550 gMFI; in assay [5], 3180 gMFI; in assay [6] it was 5410 gMFI. Moreover, the “Jurkat WT/KO (Fold)” value in assay [2] came to 3.9 fold; in assay [4], 1.4 fold.

B2: CD3 × CD33-BspAb93 (bispecific antibody)
chain 1: NFMLTQPHSVSESPGKTVTISCTRSSGSIASKYVQWYQQRPGSSPTTVIYEDNQRPSGVPDRFSGSIDSSSNSASLTISGLKTEDEADYYCQSYYSNNRVFGCGTKLTVLGGGGSGGGGSGGGGSGGGGSEVQLVESGGGLVQPGGSLRLSCAASGFTFSRYSMNWVRQAPGKCLEWVSYISRSSTTIYYADSVKGRFTISRDNAKNSLYLQMNSLRDEDAAVYYCARERWELLYFDYWGQGTLVTVSSDKTHTCPPCPAPEFEGGPSVFLFPPKPKDTLMISRTPEVTCVVVDVSHEDPEVKFNWYVDGVEVHNAKTKPREEQYNSTYRVVSVLTVLHQDWLNGKEYKCKVSNKALPASIEKTISKAKGQPREPQVYTLPPCREEMTKNQVSLWCLVKGFYPSDIAVEWESNGQPENNYKTTPPVLDSDGSFFLYSKLTVDKSRWQQGNVFSCSVMHEALHNHYTQKSLSLSPGK
chain 2: B1 heavy
chain 3: B1 light
As for B2, the “% Positive” value in assay [1] was 99.8%; in assay [6] it was 98.2%. The gMFI in assay [1] is 135000 gMFI; in assay [3] it was 28400 gMFI; in assay [5], 16200 gMFI; in assay [6], 29600 gMFI. The results for the “Jurkat WT/KO (Fold)” value in assay [2] and in assay [4] were 9.5 fold and 5.6 fold, respectively.

B3: CD3 × CD33-BspAb94 (bispecific antibody)
chain 1: NFMLTQPHSVSESPGKTVTISCTRSSGSIASNYVQWYQQRPGSSPTTVIYEDNQRPSGVPDRFSGSIDSSSNSASLTISGLKTEDEADYYCQSYDSSNRVFGCGTKLTVLGGGGSGGGGSGGGGSGGGGSEVQLVESGGGLVKPGGSLRLSCAASGFTFSSYTMNWVRQAPGKCLEWVSSITTSSSYIYYADSVKGRFTISRDNAKNSLYLQMNSLRAEDTAVYYCARVTFDAFDIWGQGTMVTVSSDKTHTCPPCPAPEFEGGPSVFLFPPKPKDTLMISRTPEVTCVVVDVSHEDPEVKFNWYVDGVEVHNAKTKPREEQYNSTYRVVSVLTVLHQDWLNGKEYKCKVSNKALPASIEKTISKAKGQPREPQVYTLPPCREEMTKNQVSLWCLVKGFYPSDIAVEWESNGQPENNYKTTPPVLDSDGSFFLYSKLTVDKSRWQQGNVFSCSVMHEALHNHYTQKSLSLSPGK
chain 2: B1 heavy
chain 3: B1 light
For B3, the “% Positive” value was 4.4% in assay [1] and 2.6% in assay [6]. The gMFI in assay [1] was 2600 gMFI; in assay [3], 2190 gMFI; in assay [5], 1830 gMFI; in assay [6] it was 2050 gMFI. The “Jurkat WT/KO (Fold)” value in assay [2] is 1.1 fold; in assay [4], 0.8 fold.

B4: CD3 × CD33-BspAb89 (bispecific antibody)
scFv-Fc: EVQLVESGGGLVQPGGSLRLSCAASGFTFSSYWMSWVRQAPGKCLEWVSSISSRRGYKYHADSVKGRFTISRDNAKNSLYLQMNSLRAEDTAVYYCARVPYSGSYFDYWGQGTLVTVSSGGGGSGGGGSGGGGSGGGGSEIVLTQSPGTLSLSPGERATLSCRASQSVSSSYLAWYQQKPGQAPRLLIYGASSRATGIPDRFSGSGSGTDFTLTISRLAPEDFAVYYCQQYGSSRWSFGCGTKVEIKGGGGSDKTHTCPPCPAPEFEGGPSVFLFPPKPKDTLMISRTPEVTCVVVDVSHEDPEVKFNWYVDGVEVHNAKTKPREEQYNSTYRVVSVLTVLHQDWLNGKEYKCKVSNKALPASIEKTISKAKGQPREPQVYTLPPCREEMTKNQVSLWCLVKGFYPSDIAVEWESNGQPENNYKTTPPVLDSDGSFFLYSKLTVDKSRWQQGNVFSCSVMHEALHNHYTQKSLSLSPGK
heavy: B1 heavy
light: B1 light
notes: KiH heterodimer
For the molecule B4, the “% Positive” value in assay [1] came to 1.7%; in assay [6], 0.6%. In addition, the gMFI in assay [1] is 1960 gMFI; in assay [3] it was 1750 gMFI; in assay [5], 1840 gMFI; in assay [6] it was 1830 gMFI. Moreover, the results for the “Jurkat WT/KO (Fold)” value in assay [2] and in assay [4] were 0.9 fold and 0.8 fold, respectively.

B5: CD3 × CD33-BspAb90 (bispecific antibody)
scFv-Fc: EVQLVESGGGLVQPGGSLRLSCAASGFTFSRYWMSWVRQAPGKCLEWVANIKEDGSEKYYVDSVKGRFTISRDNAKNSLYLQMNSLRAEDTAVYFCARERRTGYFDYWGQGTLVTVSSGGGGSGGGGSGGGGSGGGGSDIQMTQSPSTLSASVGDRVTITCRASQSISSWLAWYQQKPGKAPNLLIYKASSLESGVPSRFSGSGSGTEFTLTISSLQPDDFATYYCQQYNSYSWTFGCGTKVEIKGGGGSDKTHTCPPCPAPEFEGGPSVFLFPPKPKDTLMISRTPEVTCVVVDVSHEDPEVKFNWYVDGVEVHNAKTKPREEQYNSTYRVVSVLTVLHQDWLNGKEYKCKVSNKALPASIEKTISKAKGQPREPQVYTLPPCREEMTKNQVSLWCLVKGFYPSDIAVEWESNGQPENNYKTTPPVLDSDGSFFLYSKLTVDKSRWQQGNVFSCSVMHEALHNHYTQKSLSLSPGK
heavy: B1 heavy
light: B1 light
notes: KiH heterodimer
In the case of B5, the “% Positive” value is 98.1% in assay [1] and 83.8% in assay [6]. In addition, the gMFI was found to be 78400 gMFI in assay [1], 19400 gMFI in assay [3], 4480 gMFI in assay [5] and 11600 gMFI in assay [6]. Further, the “Jurkat WT/KO (Fold)” value was 7.5 fold in assay [2] and 1.9 fold in assay [4].

B6: CD3 × CD33-BspAb91 (bispecific antibody)
chain 1: DIQMTQSPSTLSASVGDRVTITCRASQSISSWLAWFQQKTGKAPKLLIYKASSLESGVPSRFSGSGSGTEFTLTISSLQPDDFATYYCQQYISYSWTFGCGTKVEIKGGGGSGGGGSGGGGSGGGGSEVQLVESGGGLVQRGGSLRLSCAASGFTFSNYWMSWVRQAPGKCLEWVANIKEDGSEKYYVDSVKGRFTISRDNAKHSLYLQMNSLRAEDTAVYYCARERRTGYFDYWGQGTLVTVSSDKTHTCPPCPAPEFEGGPSVFLFPPKPKDTLMISRTPEVTCVVVDVSHEDPEVKFNWYVDGVEVHNAKTKPREEQYNSTYRVVSVLTVLHQDWLNGKEYKCKVSNKALPASIEKTISKAKGQPREPQVYTLPPCREEMTKNQVSLWCLVKGFYPSDIAVEWESNGQPENNYKTTPPVLDSDGSFFLYSKLTVDKSRWQQGNVFSCSVMHEALHNHYTQKSLSLSPGK
chain 2: B1 heavy
chain 3: B1 light
Take B6: the “% Positive” value in assay [1] was found to be 99.4%; in assay [6] it was 94.6%. Also, the gMFI in assay [1] is 127000 gMFI; in assay [3] it was 31600 gMFI; in assay [5], 8110 gMFI; in assay [6], 18500 gMFI. Besides, the “Jurkat WT/KO (Fold)” value was determined as 10.4 fold in assay [2] and 3.7 fold in assay [4].

B7: CD3 × CD33-BspAb95 (bispecific antibody)
chain 1: NFMLTQPHSVSESPGKTVTISCTRSSGSIASNYVQWYQQRPGSSPTTVIYEDNQRSSGVPDRFSGSIDSSSNSASLTISGLKTEDEADYYCQSYDRSNRVFGCGTKLTVLGGGGSGGGGSGGGGSGGGGSEVQLVESGGGLVKPGGSLRLSCSASGFTFSTYTMNWVRQAPGKCLEWVSSISKSSSYIYYTDSVKGRFTISRDNAKNSLYLQMNSLRAEDTAVYYCARERRTLAFDIWGQGTMVTVSSDKTHTCPPCPAPEFEGGPSVFLFPPKPKDTLMISRTPEVTCVVVDVSHEDPEVKFNWYVDGVEVHNAKTKPREEQYNSTYRVVSVLTVLHQDWLNGKEYKCKVSNKALPASIEKTISKAKGQPREPQVYTLPPCREEMTKNQVSLWCLVKGFYPSDIAVEWESNGQPENNYKTTPPVLDSDGSFFLYSKLTVDKSRWQQGNVFSCSVMHEALHNHYTQKSLSLSPGK
chain 2: B1 heavy
chain 3: B1 light
Take B7: the “% Positive” value in assay [1] stood at 99.8%; in assay [6] it was 99.7%. In addition, the gMFI in assay [1] came out at 232000 gMFI; in assay [3], 39500 gMFI; in assay [5], 33900 gMFI; in assay [6], 112000 gMFI. Besides, the “Jurkat WT/KO (Fold)” value in assay [2] amounted to 12.5 fold; in assay [4], 10.5 fold.
